Assay results published in the supplement of paper PMC9732359.
± gives the uncertainty stated by the source.

Test: protein stability index of a GFP-peptide fusion (yeast GPS) (PSI 1-4); higher = more stable; sorted into four equal gates, so the index is relative within each strain
Summary of the method: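 Yeast carrying a pooled library were grown to mid-log phase in leucine-free medium. Each library plasmid expresses Cherry and has a tiled 17-residue yeast protein peptide fused downstream of GFP. Cells were sorted into four equal gates by GFP/Cherry ratio, and plasmids from each gate were PCR-amplified, Illumina-sequenced and assigned to strains by barcode. Summing, across gates, the read frequency times the gate number gave each peptide's protein stability index.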

Sequence | protein stability index (doa10∆) | protein stability index (pdr5∆) | protein stability index (san1∆) | protein stability index (ubr1∆)
NQGVNELKYQRSLRATA [RPL15A] | 1.33 ± 0.073 | 1.42 ± 0.086 | 1.61 ± 0.18 | 1.11 ± 0.05
NKQSVSNLSPDLKFKRH [DSN1] | 2.95 ± 0.11 | 2.61 ± 0.22 | 3.32 ± 0.089 | 2.34 ± 0.2
SDGEDGHIPWHILAVKK [SSN2] | 3.02 ± 0.11 | 2.97 ± 0.15 | 3.23 ± 0.1 | 3.16 ± 0.15
LKKGEVSLGTSIMAVTF [PRE3] | – | 1.67 ± 0.23 | 1.13 ± 0.18 | 1.13 ± 0.18
LIFIACNDEDKDLETLY [ECM29] | 3.11 ± 0.084 | 3.04 ± 0.067 | 2.3 ± 0.089 | 2.92 ± 0.035
DEGGAKSLLLNTLNIDN [BRN1] | 3.19 ± 0.077 | 3.16 ± 0.097 | 3.1 ± 0.083 | 3.38 ± 0.075
WIKFDQELYNELCKKNE [RPN7] | 3.12 ± 0.13 | 3.05 ± 0.28 | 2.79 ± 0.17 | 3.1 ± 0.17
NSEYLKRRVTNLEFNYT [SMC2] | 2.38 ± 0.066 | 2.27 ± 0.1 | 2.5 ± 0.091 | 2.49 ± 0.084
RGGVKRISGLIYEEVRA [HHF1] | 3.35 ± 0.13 | 3.13 ± 0.2 | 3.15 ± 0.11 | –
DALRRGMLAMASLHSKE [MED4] | 1.87 ± 0.15 | 2.23 ± 0.15 | 2.24 ± 0.17 | 2.05 ± 0.17
LVTQHKAKYNTPKYRLV [RPL5] | 1.43 ± 0.052 | 1.94 ± 0.064 | 1.76 ± 0.095 | 1.87 ± 0.058
ELFKDYKPGSITLENIT [MED1] | 2.53 ± 0.067 | 2.36 ± 0.053 | 1.96 ± 0.062 | 2.11 ± 0.042
DNFDYFNQRDGEHEKSN [MED1] | 2.86 ± 0.098 | 3 ± 0.2 | 3.19 ± 0.15 | 3.56 ± 0.14
VILGADSRTTTGAYIAN [PRE3] | 2.72 ± 0.13 | 3.41 ± 0.11 | 3.12 ± 0.16 | 2.81 ± 0.13
LECQLFPQGLNIVMDSK [SSN8] | 1.74 ± 0.2 | – | – | 2.46 ± 0.19
SPTENGVFDPASYAKYL [RPL22A] | 2.98 ± 0.051 | 3.19 ± 0.061 | 3.08 ± 0.045 | 2.88 ± 0.043
VKNTNANPVVATDPVAA [SWP82] | 2 ± 0.1 | 2.91 ± 0.1 | 2.5 ± 0.091 | 2.47 ± 0.061
EMDEKSYEKNEDHVEDH [LIN1] | 3.3 ± 0.11 | 3.35 ± 0.089 | 3.49 ± 0.086 | 3.14 ± 0.052
DQYDAERDFYHSLREYI [RPO31] | 3.33 ± 0.076 | 3 ± 0.12 | 3.07 ± 0.074 | 3.3 ± 0.091
MTVTKVSLPEGSFKRVK [BRR2] | 2.92 ± 0.13 | 2.72 ± 0.11 | 3.19 ± 0.076 | 3.17 ± 0.076
IRRLRVLRRLLAKYRDA [RPL19A] | 1.19 ± 0.067 | 1.41 ± 0.058 | 1.34 ± 0.17 | 1.25 ± 0.057
ISEINFLHESSFDSIDH [CSI1] | 2.54 ± 0.05 | 2.95 ± 0.06 | 2.51 ± 0.069 | 2.84 ± 0.041
LKNLLRSNFRVNLSQEA [SNU114] | 2.05 ± 0.093 | 2.26 ± 0.089 | 2.58 ± 0.11 | 2.58 ± 0.11
SRILYKAIRGMVSHKTA [RPL16B] | 1.26 ± 0.057 | 1.2 ± 0.066 | 1.22 ± 0.16 | 1.25 ± 0.063
KAIFQFVCRGMAATQTI [ECM29] | 1.52 ± 0.051 | 1.73 ± 0.048 | 1.46 ± 0.17 | 1.48 ± 0.049
RSEKSTTNAQTKKLIQK [SRP54] | – | 2.82 ± 0.13 | 2.77 ± 0.15 | 2.94 ± 0.098

Sequence | protein stability index (doa10∆) | protein stability index (pdr5∆) | protein stability index (san1∆) | protein stability index (ubr1∆)
LAQTLKLWRKIARLYSC [RRI2] | 1.2 ± 0.07 | 1.21 ± 0.058 | 1.34 ± 0.096 | 1.26 ± 0.053
IERYPLKVTKKHGAKKV [RPL27A] | 3.37 ± 0.092 | 3.6 ± 0.14 | 3.54 ± 0.087 | 3.23 ± 0.1
KIALREYINNCKKNTKK [POP4] | – | 2.86 ± 0.27 | 3.01 ± 0.087 | 2.89 ± 0.15
VFKATSSTDEESWFKAL [FAS1] | 2.92 ± 0.13 | 3 ± 0.15 | 2.75 ± 0.082 | 2.88 ± 0.084
EVSTSTSMTGDANLLEE [SWI3] | 3.09 ± 0.13 | 3.23 ± 0.11 | 3.24 ± 0.042 | 3.3 ± 0.041
DQTFPINCNKETIENVK [ECM29] | 3.17 ± 0.082 | 2.93 ± 0.099 | 3.08 ± 0.07 | 3.4 ± 0.088
FQDTLYKKIPLLGPTLE [QCR10] | 2.84 ± 0.13 | 2.94 ± 0.11 | 2.47 ± 0.18 | 2.95 ± 0.1
DTKIDQVNGNIRKVSND [SMC3] | 3.47 ± 0.16 | 3.07 ± 0.24 | 3 ± 0.12 | 3.27 ± 0.13
SPLNTTTKILGDKILGN [YML103C/NUP188] | 2.33 ± 0.055 | 2.63 ± 0.049 | 2.45 ± 0.059 | 2.12 ± 0.028
TNNEQLQQELATTQDQV [NUT2] | 3.06 ± 0.048 | 3.25 ± 0.062 | 3.11 ± 0.039 | 3.19 ± 0.038
EKGLNELSIRDVTHTLG [SMC4] | 1.34 ± 0.14 | 2.42 ± 0.092 | 2.48 ± 0.17 | 1.57 ± 0.1
LKPVDKLKPMNIERKQT [SIN4] | 2.82 ± 0.11 | 3.05 ± 0.11 | 2.83 ± 0.088 | 3.04 ± 0.11
GCLIKNLPRTKAKSVVN [RMP1] | 2 ± 0.11 | 2.52 ± 0.2 | 1.92 ± 0.17 | 2.13 ± 0.12
NLDGTKAVKLRKSYKNQ [ROX3] | 3.43 ± 0.1 | 3.36 ± 0.096 | 3.39 ± 0.067 | 3.58 ± 0.046
SNKPCMGIVQDTLCGIR [RPO21] | 2.45 ± 0.065 | 1.8 ± 0.067 | 2.15 ± 0.073 | 1.77 ± 0.088
VDDDQDYVVAPGVNREI [GRR1] | 3.17 ± 0.13 | 3.13 ± 0.15 | 3.31 ± 0.2 | 3.29 ± 0.2
KNLQRESCEDILDLKEF [RTT102] | 3.59 ± 0.21 | 3.31 ± 0.13 | 3.17 ± 0.28 | 3.45 ± 0.16
DFHFSTDRITRLFIKPG [BRN1] | 2.33 ± 0.058 | 2.6 ± 0.046 | 2.16 ± 0.089 | 2.67 ± 0.048
PDYYVSILSFVDKELLE [RPT2] | 2.6 ± 0.054 | 2.55 ± 0.048 | 2.39 ± 0.05 | 2.59 ± 0.046
KQRKNPRRIAWTVLFRK [RPL24A] | 3.03 ± 0.14 | 2.27 ± 0.1 | 1.41 ± 0.25 | 2.27 ± 0.048
STMTEPVKQSFIRKYIN [GAL11] | 2.56 ± 0.082 | 2.2 ± 0.065 | 1.96 ± 0.092 | 2.47 ± 0.053
PGTITHGMFSSASVRAL [FAS1] | 2.53 ± 0.063 | 2.54 ± 0.064 | 2.53 ± 0.053 | 2.52 ± 0.037
RRAAYGVVRYVMESGAK [RPS3] | 1.5 ± 0.1 | 1.83 ± 0.13 | – | 1.84 ± 0.094
FYQQVHKKDRLQYLPLY [SIR4] | 1.64 ± 0.063 | 1.77 ± 0.058 | 1.75 ± 0.11 | 1.67 ± 0.048
IRDNKLVSEKIINSTAL [RPC82] | 3.24 ± 0.2 | 3.24 ± 0.12 | 2.99 ± 0.19 | 3.14 ± 0.11
VSECIILGQTMSIGTGS [RPO31] | 2.06 ± 0.078 | 2 ± 0.061 | 1.89 ± 0.086 | 2.58 ± 0.055
